According to patent US20050244868A1:

Legend:
[1] = molecular target: CG55069 (Ten-M3), endogenous on human tumour, lymphoma and leukemia cell lines (human) (UniProt Q9P273); experiment: flow cytometry on SR cells, negative control antibody
[2] = molecular target: CG55069 (Ten-M3), endogenous on human tumour, lymphoma and leukemia cell lines (human) (UniProt Q9P273); experiment: flow cytometry on DEL cells, negative control antibody
[3] = molecular target: CG55069 (Ten-M3), endogenous on human tumour, lymphoma and leukemia cell lines (human) (UniProt Q9P273); experiment: flow cytometry on MOLT-4 cells, negative control antibody
[4] = molecular target: CG55069 (Ten-M3), endogenous on human tumour, lymphoma and leukemia cell lines (human) (UniProt Q9P273); experiment: flow cytometry on MV4-11 cells, negative control antibody
[5] = molecular target: CG55069 (Ten-M3), endogenous on human tumour, lymphoma and leukemia cell lines (human) (UniProt Q9P273); experiment: flow cytometry on SUP-M2 cells, negative control antibody
[6] = molecular target: CG55069 (Ten-M3), endogenous on human tumour, lymphoma and leukemia cell lines (human) (UniProt Q9P273); experiment: flow cytometry on CCRF-CEM cells, negative control antibody
[7] = molecular target: CG55069 (Ten-M3), endogenous on human tumour, lymphoma and leukemia cell lines (human) (UniProt Q9P273); experiment: flow cytometry on SU-DHL-4 cells, negative control antibody
[8] = molecular target: CG55069 (Ten-M3), endogenous on human tumour, lymphoma and leukemia cell lines (human) (UniProt Q9P273); experiment: flow cytometry on Karpas 299 cells, negative control antibody

UniProt Q9P273, sequence (Q9P273 other isoform, or with tags, fused parts or gaps): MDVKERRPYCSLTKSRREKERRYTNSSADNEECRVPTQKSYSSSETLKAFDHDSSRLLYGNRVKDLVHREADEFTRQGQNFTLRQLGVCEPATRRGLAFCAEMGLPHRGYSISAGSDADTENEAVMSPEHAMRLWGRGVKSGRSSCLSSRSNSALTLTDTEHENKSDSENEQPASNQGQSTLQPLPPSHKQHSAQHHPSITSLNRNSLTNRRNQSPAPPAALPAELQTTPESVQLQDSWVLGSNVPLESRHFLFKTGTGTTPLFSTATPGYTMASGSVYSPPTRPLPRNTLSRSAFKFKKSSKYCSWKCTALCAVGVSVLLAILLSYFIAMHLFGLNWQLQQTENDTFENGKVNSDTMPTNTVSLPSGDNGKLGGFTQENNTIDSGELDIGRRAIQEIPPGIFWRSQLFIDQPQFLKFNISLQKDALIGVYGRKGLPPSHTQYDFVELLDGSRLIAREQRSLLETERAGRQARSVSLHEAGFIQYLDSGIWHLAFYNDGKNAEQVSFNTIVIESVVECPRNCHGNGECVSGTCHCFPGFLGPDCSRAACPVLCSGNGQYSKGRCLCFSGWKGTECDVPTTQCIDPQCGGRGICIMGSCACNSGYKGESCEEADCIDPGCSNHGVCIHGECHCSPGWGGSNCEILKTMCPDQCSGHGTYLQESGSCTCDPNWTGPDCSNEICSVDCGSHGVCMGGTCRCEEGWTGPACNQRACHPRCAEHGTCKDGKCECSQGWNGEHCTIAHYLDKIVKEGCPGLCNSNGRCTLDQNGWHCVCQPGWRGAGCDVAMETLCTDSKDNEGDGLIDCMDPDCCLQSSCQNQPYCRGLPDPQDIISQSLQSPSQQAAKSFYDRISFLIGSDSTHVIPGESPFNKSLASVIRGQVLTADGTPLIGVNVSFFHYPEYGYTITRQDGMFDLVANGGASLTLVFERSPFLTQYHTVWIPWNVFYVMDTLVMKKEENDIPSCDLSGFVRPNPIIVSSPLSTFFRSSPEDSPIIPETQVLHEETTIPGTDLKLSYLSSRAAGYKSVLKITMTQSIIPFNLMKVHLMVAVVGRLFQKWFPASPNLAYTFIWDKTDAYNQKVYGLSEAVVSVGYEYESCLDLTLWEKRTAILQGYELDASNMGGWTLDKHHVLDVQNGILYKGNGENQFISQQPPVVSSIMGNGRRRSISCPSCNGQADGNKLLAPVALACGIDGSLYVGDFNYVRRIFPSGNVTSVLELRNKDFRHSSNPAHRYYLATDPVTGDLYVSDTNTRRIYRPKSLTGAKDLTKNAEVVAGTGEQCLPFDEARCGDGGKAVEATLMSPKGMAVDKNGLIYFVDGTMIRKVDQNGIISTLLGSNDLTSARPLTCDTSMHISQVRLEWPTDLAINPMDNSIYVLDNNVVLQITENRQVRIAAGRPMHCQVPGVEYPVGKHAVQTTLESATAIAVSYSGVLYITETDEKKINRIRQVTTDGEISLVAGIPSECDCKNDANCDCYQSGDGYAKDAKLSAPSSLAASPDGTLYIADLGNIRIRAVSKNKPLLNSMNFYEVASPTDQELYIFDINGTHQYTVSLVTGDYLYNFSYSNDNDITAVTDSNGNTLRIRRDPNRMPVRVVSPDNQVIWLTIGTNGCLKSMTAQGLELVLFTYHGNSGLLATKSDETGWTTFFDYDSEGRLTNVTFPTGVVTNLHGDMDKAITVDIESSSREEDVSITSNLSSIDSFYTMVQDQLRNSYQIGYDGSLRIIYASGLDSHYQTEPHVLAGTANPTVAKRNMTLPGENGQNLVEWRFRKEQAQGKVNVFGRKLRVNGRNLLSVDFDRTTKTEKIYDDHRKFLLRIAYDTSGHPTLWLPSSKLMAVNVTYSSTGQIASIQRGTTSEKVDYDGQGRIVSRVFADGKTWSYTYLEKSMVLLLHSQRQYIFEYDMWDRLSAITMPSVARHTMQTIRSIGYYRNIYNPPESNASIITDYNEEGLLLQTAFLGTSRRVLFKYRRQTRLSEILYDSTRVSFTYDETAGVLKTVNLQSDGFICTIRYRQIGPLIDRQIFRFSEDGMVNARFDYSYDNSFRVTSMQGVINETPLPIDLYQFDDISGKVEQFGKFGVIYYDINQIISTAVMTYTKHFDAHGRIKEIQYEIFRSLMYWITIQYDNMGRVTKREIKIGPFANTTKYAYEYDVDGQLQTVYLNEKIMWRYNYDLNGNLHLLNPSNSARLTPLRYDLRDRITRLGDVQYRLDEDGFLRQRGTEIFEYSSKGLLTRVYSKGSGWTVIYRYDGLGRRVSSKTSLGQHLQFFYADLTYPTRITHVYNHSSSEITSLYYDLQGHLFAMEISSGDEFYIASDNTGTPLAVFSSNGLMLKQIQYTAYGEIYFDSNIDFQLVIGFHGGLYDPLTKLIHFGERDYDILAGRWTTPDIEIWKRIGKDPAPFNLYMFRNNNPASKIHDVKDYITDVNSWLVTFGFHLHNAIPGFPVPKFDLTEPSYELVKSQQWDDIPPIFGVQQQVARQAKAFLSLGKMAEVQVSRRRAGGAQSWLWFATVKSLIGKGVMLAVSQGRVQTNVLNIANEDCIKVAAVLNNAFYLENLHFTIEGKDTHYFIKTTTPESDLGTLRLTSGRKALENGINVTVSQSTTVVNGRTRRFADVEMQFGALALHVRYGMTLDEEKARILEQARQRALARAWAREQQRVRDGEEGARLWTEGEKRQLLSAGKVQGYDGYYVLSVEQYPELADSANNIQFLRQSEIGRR

## Rabbit negative (control antibody)
[1]
  Geo Mean Ratio: 4.29
[2]
  Geo Mean Ratio: 7.41
[3]
  Geo Mean Ratio: 4.13
[4]
  Geo Mean Ratio: 90.7
[5]
  Geo Mean Ratio: 6.13
[6]
  Geo Mean Ratio: 4.22
[7]
  Geo Mean Ratio: 2.38
[8]
  Geo Mean Ratio: 5.08
